Assay results reported in the RNAGym collection of RNA variant scans (doi:10.1021/acssynbio.7b00057).

B1: Pistol ribozyme (parent)
chain: GGGUCGUUGUUCCAUAAUCGCGUGGAUAUGGCACGCAAGUUUCUACCGGGCACCGUAAAUGUCCGACUGGAGCCGUUCGGGCGGCUAUAAACAGACCUCAGGCCCGAAGCGUGGCGGCACCUGCCGCCGGUGGUAAAAAAGAUCGGAAGAGCACACGUCU

Variants of: B1
Assay: aptazyme ON/OFF ratio, guanine; higher = stronger switching; co-transcriptional cleavage with and without guanine

Point of comparison: U7G G9U U10G U11G C12A C13U, “aptazyme ON/OFF ratio” value 1.19. Against it:
- U7G U8A G9A — higher, 2.45
- U7G U8A — higher, 1.54
- U7G G9U U10G U11C C12U — lower, 1.17
- U7G G9U U10G U11C C12A — higher, 1.62
- U7G G9U U10G U11C C12G — higher, 1.48
- U7G G9U U10G C12G C13A — lower, 1.15
- U7G G9U U10G C12G C13G — higher, 1.2
- U7G G9U U10G C12G C13U — higher, 1.4
- U7G G9U U10G U11C C12G C13U — higher, 1.36
- U7G G9U U10G U11C C12G C13A — lower, 1.16
- U7G G9U U10G U11C C12G C13G — lower, 1.07
- U7G U8A G9A C13A — higher, 1.25
- U7G U8A G9A C13U — higher, 1.23
- U7G U8A G9A C13G — lower, 1.09
- U7G G9U U10G U11A C12G C13G — lower, 1.17
- U7G G9U U10G U11A C12G C13U — lower, 1.18
- U7G G9U U10G U11A C12G C13A — the same, 1.19
- U7G U8A G9A U10A U11A C12G C13A — lower, 1.1
- U7G U8A G9A U10A U11A C12G C13U — lower, 1.14
- U7G U8A G9A U10A U11A C12G C13G — lower, 1.15
- U7G U8A C12G C13G — lower, 1.17
- U7G U8A C12G C13A — higher, 1.51
- U7G U8A C12G C13U — higher, 1.46
- U7G U8A G9A C12U C13U — lower, 1.08
- U7G U8A G9A C12U C13G — lower, 1.1
- U7G U8A G9A C12U C13A — lower, 1.13
- U7G G9U U11G C12G C13A — the same, 1.19
- U7G G9U U11G C12G C13U — higher, 1.29
- U7G G9U U11G C12G C13G — higher, 1.21
- U7G G9U U11G C12G — higher, 1.74
- U7G G9U U11G C12U — higher, 1.2
- U7G G9U U11G C12A — higher, 1.82
- U7G G9U U11G C12A C13G — higher, 1.2
- U7G G9U U11G C12A C13A — lower, 1.11
- U7G G9U U11G C12A C13U — higher, 1.26
- U7G U8A G9A C12G — lower, 1.18
- U7G U8A G9A C12U — lower, 1.12
- U7G U8A G9A C12A — lower, 1.06
- U7G G9U U11G C13G — higher, 1.3
- U7G G9U U11G C13U — higher, 1.26
- U7G G9U U11G C13A — higher, 1.3
- U7G G9U U10G U11A C12A — lower, 1.15
- U7G G9U U10G U11A C12G — higher, 1.26
- U7G G9U U10G U11A C12U — higher, 1.27
- U7G U8A G9A U10A C12A C13A — higher, 1.2
- U7G U8A G9A U10A C12A C13G — lower, 1.12
- U7G U8A G9A U10A C12A C13U — lower, 1.14
- U7G G9U U11A C12G — higher, 1.46
- U7G G9U U11A C12A — higher, 1.56
- U7G G9U U11A C12U — higher, 1.32
- U7G U8A C12U C13U — higher, 1.42
- U7G U8A C12U C13A — higher, 1.43
- U7G U8A C12U C13G — higher, 1.38
- U7G G9U U10G U11G C12U C13G — lower, 1.05
- U7G G9U U10G U11G C12U C13A — higher, 1.22
- U7G G9U U10G U11G C12U C13U — higher, 1.29
- U7G U8A C12G — higher, 1.35
- U7G U8A C12A — higher, 1.27
- U7G U8A C12U — higher, 1.44
- U7G U8A G9A U10A C12G C13G — lower, 1.09
- U7G U8A G9A U10A C12G C13U — lower, 1.1
- U7G U8A G9A U10A C12G C13A — lower, 1.06
- U7G G9U U10G C12U — higher, 1.55
- U7G G9U U10G C12G — higher, 1.36
- U7G G9U U10G U11A C12A C13A — lower, 1.16
- U7G G9U U10G U11A C12A C13U — lower, 1.16
- U7G G9U U10G U11A C12A C13G — lower, 1.06
- U7G U8A G9A U10A C13G — lower, 1.1
- U7G U8A G9A U10A C13U — lower, 1.11
- U7G U8A G9A U10A C13A — the same, 1.19
- U7G G9U U11G C12U C13U — higher, 1.44
- U7G G9U U11G C12U C13A — higher, 1.31
- U7G G9U U11G C12U C13G — higher, 1.37
- U7G U8A G9A U10A U11A C12A C13U — lower, 1.12
- U7G U8A G9A U10A U11A C12A C13A — lower, 1.09
- U7G U8A G9A U10A U11A C12A C13G — lower, 1.04
- U7G U8A G9A U10A U11A C12G — higher, 1.26
- U7G U8A G9A U10A U11A C12A — lower, 1.18
- U7G U8A G9A U10A U11A C12U — lower, 1.18
- U7G G9U U11C — higher, 4.69
- U7G G9U U11G — higher, 2.13
- U7G G9U U11A — higher, 1.42
- U7G G9U U10G U11C — lower, 1.13
- U7G G9U U10G U11G — higher, 1.74
- U7G G9U U10G U11A — higher, 1.23
- U7G G9U U11A C12A C13U — higher, 1.43
- U7G G9U U11A C12A C13G — higher, 1.23
- U7G G9U U11A C12A C13A — higher, 1.3
- U7G G9U U10G U11G C12A C13G — lower, 1.07
- U7G G9U U10G U11G C12A C13A — lower, 1.11
- U7G G9U U10G U11A C13G — lower, 1.16
- U7G G9U U10G U11A C13A — lower, 1.15
- U7G G9U U10G U11A C13U — lower, 1.17
- U7G U8A G9A U10A C12U C13A — lower, 1.13
- U7G U8A G9A U10A C12U C13G — lower, 1.07
- U7G U8A G9A U10A C12U C13U — lower, 1.03
- U7G G9U U10G U11C C12A C13U — higher, 1.33
- U7G G9U U10G U11C C12A C13G — higher, 1.23
- U7G G9U U10G U11C C12A C13A — lower, 1.14
- U7G G9U U11C C12A C13U — higher, 1.41
- U7G G9U U11C C12A C13G — higher, 1.28
- U7G G9U U11C C12A C13A — higher, 1.42
- U7G U8A G9A C12A C13G — lower, 1.11
- U7G U8A G9A C12A C13A — higher, 1.25
- U7G U8A G9A C12A C13U — lower, 1.1
- U7G G9U U10G U11C C12U C13G — higher, 1.25
- U7G G9U U10G U11C C12U C13A — higher, 1.23
- U7G G9U U10G U11C C12U C13U — higher, 1.44
- U7G G9U U11C C13A — higher, 1.37
- U7G G9U U11C C13U — higher, 1.65
- U7G G9U U11C C13G — lower, 1.05
- U7G G9U U11C C12G — higher, 1.74
- U7G G9U U11C C12A — higher, 1.61
- U7G G9U U11C C12U — higher, 2.32
- U7G G9U U10G U11G C13U — higher, 1.3
- U7G G9U U10G U11G C13A — higher, 1.22
- U7G G9U U10G U11G C13G — lower, 1.18
- U7G G9U U10G C12U C13A — higher, 1.28
- U7G G9U U10G C12U C13U — higher, 1.25
- U7G G9U U10G C12U C13G — higher, 1.34
- U7G G9U U11A C13A — higher, 1.34
- U7G G9U U11A C13U — higher, 1.27
- U7G G9U U11A C13G — lower, 1.13
- U7G G9U U10G C13G — higher, 1.21
- U7G G9U U10G C13A — higher, 1.39
- U7G G9U U10G C13U — higher, 1.48
- U7G G9U U11C C12U C13U — higher, 1.31
- U7G G9U U11C C12U C13A — higher, 1.37
- U7G G9U U11C C12U C13G — higher, 1.3
- U7G G9U U10G U11C C13G — lower, 1.11
- U7G G9U U10G U11C C13U — lower, 1.1
- U7G G9U U10G U11C C13A — higher, 1.2
- U7G U8A G9A U10A — higher, 1.77
- U7G G9U U11A C12U C13G — higher, 1.27
- U7G G9U U11A C12U C13U — lower, 1.07
- U7G G9U U11A C12U C13A — higher, 1.25
- U7G U8A C12A C13U — higher, 1.23
- U7G U8A C12A C13A — higher, 1.27
- U7G U8A C12A C13G — lower, 1.14
- U7G G9U U11A C12G C13G — higher, 1.23
- U7G G9U U11A C12G C13A — lower, 1.1
- U7G G9U U11A C12G C13U — higher, 1.36
- U7G G9U U10G U11A C12U C13A — lower, 1.17
- U7G G9U U10G U11A C12U C13G — lower, 1.17
- U7G G9U U10G U11A C12U C13U — higher, 1.23
- U7G U8A G9A U10A C12U — the same, 1.19
- U7G U8A G9A U10A C12A — lower, 1.17
- U7G U8A G9A U10A C12G — the same, 1.19
- U7G G9U U10G U11G C12G C13U — higher, 1.27
- U7G G9U U10G U11G C12G C13A — lower, 1.1
- U7G G9U U10G U11G C12G C13G — lower, 1.17
- U7G U8A G9A U10A U11A — higher, 1.45
- U7G G9U U10G U11G C12G — lower, 1.16
- U7G G9U U10G U11G C12U — higher, 1.29
- U7G G9U U10G U11G C12A — lower, 1.11
- U7G U8A G9A C12G C13U — lower, 1.11
- U7G U8A G9A C12G C13G — lower, 1.04
- U7G U8A G9A C12G C13A — lower, 1.13
- U7G U8A C13U — lower, 0.972
- U7G U8A C13A — higher, 1.35
- U7G U8A C13G — higher, 1.41
- U7G G9U U10G C12A C13U — higher, 1.41
- U7G G9U U10G C12A C13G — lower, 1.12
- U7G G9U U11C C12G C13G — higher, 1.26
- U7G G9U U11C C12G C13A — higher, 1.22
- U7G G9U U11C C12G C13U — higher, 1.37
